Data published in article doi:10.1101/321604.

Target: mUHRF1 C-terminally tagged with GFP- and 6xHis-tag (mouse) (UniProt Q8VDF2)
Assay: MST

UniProt Q8VDF2, sequence (Q8VDF2 whole entry): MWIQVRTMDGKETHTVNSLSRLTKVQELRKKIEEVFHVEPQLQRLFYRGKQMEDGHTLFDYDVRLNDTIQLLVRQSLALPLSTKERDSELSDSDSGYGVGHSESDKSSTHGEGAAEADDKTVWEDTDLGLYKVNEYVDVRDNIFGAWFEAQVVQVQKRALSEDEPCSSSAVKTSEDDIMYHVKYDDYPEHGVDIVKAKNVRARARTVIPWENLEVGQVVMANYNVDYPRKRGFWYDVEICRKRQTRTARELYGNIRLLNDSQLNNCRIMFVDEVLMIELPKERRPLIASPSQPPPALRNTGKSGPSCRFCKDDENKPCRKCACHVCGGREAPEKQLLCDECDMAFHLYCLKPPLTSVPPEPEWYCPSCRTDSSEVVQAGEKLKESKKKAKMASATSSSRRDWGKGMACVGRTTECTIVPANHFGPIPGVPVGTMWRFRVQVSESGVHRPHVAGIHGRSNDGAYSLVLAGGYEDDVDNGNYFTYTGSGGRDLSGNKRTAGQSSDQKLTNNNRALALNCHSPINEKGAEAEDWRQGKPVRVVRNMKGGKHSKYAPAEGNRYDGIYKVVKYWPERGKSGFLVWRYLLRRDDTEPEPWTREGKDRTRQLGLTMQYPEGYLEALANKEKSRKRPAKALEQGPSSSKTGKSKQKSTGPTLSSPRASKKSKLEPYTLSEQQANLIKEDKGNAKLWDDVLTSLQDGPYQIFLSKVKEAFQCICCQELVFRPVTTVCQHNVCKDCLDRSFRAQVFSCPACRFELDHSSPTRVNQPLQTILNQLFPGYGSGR

- Kd: 440 nM
Substance: GST-mDPPA3 wild-type (from UniProt Q8QZY3 1-150) (natural protein)
